Results published in US20190248882A1 (ALLERGAN, published 2019).

Target: T1, human ANG-2 (R&D Systems) (human, UniProt O15123 68-496, limits assumed, biotinylated in the Tie-2 competition ELISA (site not stated))
T1 construct: Protein bought from R&D Systems; It was unlabelled in the Octet assay and biotinylated in the ELISA; also called angiopoietin-2; ANGPT2
T1 sequence: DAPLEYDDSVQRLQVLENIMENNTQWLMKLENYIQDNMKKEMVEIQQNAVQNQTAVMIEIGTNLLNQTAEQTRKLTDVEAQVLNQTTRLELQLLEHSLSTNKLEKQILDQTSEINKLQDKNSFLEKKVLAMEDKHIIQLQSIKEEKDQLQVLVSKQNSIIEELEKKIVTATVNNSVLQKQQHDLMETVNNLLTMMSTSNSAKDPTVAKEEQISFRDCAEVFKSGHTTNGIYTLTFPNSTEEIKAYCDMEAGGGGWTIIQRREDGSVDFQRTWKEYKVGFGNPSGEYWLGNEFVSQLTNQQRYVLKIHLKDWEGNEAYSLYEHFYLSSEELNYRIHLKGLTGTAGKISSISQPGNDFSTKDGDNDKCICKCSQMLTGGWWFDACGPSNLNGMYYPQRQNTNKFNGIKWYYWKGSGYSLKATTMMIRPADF
Experiment: BLI (Octet QKe); HCAb captured on anti-hIgG Fc tips, ANG-2 at 20 to 500 nM in solution
Description: Affinity measurements were performed using a fortéBIO OCTET® QK^e system equipped with anti-hlgG Fc capture (AHC) biosensor tips and strepavidin-coated biosensors (fortéBIO, Menlo Park, Calif.). For AHC affinity measurement, purified anti-ANG-2 HCAb A33A8 was tested for its binding capacity with AHC sensor tips. Tips were loaded using 20 μg/ml anti-ANG-2 A33A8 HCAb. Loading proceeded for 300 sec resulting in capture levels of between 1.8 and 2 nm. ANG-2 (R & D systems) antigen was prepared for binding analysis by dilution to concentrations of 20 to 500 nM in 1×PBS. Association was initiated and monitored for 200 sec, after which tips were transferred to 1×PBS buffer without Factor protein (Gibco, PBS pH 7.2), in order to monitor dissociation. Anti-ANG-2 A33A8 HCAb binding activity was then monitored in real time using bio-layer interferometry analysis. Antigen binding affinities were calculated for the tested ANG-2 based on the measured association (“Kassoc”) and dissociation (“Kdissoc”) constants. Data were processed and analyzed using the OCTET® data analysis software 6.4 (fortéBIO) (FIG. 4).

Kd: < 1 pM
B1: A33A8 human anti-ANG-2 HCAb (antibody, human IgG1, V domains shown)
VH: QVQLVESGGGLVQPGGSLRLSCAASGFTFSSYWMHWVRQAPGKGLVWVSRINSDGSSTSYADSVKGRFTISRDNAKNTLYLQMNSLRAEDTAVYYCAREGYSSGGQFDYWGQGTLVTVSS
notes: also called anti-ANG-2 HCAb A33A8; anti-ANG-2 A33A8 HCAb
